Measurements reported in publication PMC11096021 (Immunity, 2024).

Target: A/Perth/16/2009 H3 trimer (biotinylated, for BLI) (Influenza A virus A/Perth/16/2009 (H3N2), strain, biotin on the avi tag (BirA))
Experiment: BLI
Conditions: both partners purified

B1: 09–1B12 Fab (mature; Lys-C digest of recombinant IgG, used for BLI) (Fab, V domains shown)
VH: QVQLVQSAPEVKRPGASVRLSCKASGYTFNTYGIIWVRQAPGQGLEWMGWISAYTGNTNYAQKVQGRVTMTTDITTSTAYLELRGLRSDDTAVYYCARGLLQGAVILDSYHYALDFWGQGTTVTVSS
VL: EIVLTQSPGTLSLSPGERATLSCRASQSVTNRFIAWYQHKPGQSPRLLIYGASSRATGIPDRFSGRGSGTDFTLTISRLEPEDFAVYYCQQYDTSPRWTFGQGTKLEIK
B1: binds.
